Reference: article PMC10594996

How the values were obtained:
[1] = target: NHP IgG (rhesus macaque serum IgG) (rhesus macaque (Macaca mulatta)); assay: SPR; BIAcore X100; Protein A immobilised on a CM5 chip ([…]
human IgG (human) = assay: SPR; BIAcore X100; Protein A immobilised on a CM5 chip (target 5000 RU); human or NHP IgG at 20 µg/ml captured on the test flow cell to 500 RU; various concentrations of recombinant human CD64 flowed at 10 µl/min; control flow cell with Protein A only; regeneration with 10 mM glycine pH 2.0

Kd [1]: 162 nM
Kd (human IgG (human)): 21.9 nM
Substance: recombinant human CD64 receptor (from UniProt P12314 16-374)
